The assay has as its target T1, human GPC3 (human, UniProt P51654 25-563).
T1 construct: range 25-563; soluble analyte; also called soluble human GPC3; glypican 3
As to the kind of experiment: SPR. A general note: SPR reads the build-up and loss of mass on a sensor chip optically.

The term Kd denotes the equilibrium constant for the complex coming apart. Lower therefore signals a tighter complex.

T1 sequence (P51654 25-563 limits assumed): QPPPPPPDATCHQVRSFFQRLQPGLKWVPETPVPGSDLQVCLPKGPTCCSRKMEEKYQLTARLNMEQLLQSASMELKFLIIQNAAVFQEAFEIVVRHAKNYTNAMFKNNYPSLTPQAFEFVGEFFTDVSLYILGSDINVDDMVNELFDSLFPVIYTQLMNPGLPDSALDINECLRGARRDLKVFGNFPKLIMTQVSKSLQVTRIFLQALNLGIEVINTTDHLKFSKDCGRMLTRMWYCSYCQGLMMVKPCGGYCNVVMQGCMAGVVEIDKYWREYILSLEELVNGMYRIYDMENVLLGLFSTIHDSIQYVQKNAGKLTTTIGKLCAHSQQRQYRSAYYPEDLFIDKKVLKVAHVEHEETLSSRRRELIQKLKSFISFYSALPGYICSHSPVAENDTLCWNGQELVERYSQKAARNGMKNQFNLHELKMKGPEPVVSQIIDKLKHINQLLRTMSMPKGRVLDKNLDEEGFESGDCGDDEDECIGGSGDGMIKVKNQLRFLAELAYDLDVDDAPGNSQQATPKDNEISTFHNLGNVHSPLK

B1: GCH032-G1dh/none-Hi-Kn010G3/L0000-k0 (antibody, V domains shown)
VH: QVQLVQSGAEVKKPGASVKVSCKASGYTFTDYEMHWIRQPPGQGLEWIGAIDGKTPDTAYSEKFKGRVTLTADKSTSTAYMELSSLTSEDTAVYYCTRFYSYTYWGQGTLVTVSS
VL: DIVMTQSPLSLPVTPGEPASISCRSSQSLVHSNRNTYLHWYQQKPGQAPRLLIYKVSNRFSGVPDRFSGSGSGTDFTLKISRVEAEDVGVYYCGQGTQVPYTFGQGTKLEIKR
notes: one-arm
As to B1, the Kd is 5.74 nM.

B2: GCH040-G1dh/none-Hi-Kn010G3/L0000-k0 (antibody, V domains shown)
VH: QVQLVQSGAEVKKPGASVKVSCKASGYTFTDYEMHWIRQPPGQGLEWIGAIDGKTPDTAYSQKFKGRVTLTADKSTSTAYMELSELTSEDTAVYYCTRFYSYTYWGQGTLVTVSS
VL: DIVMTQSPLSLPVTPGEPASISCRSSQSLVHSNRNTYLHWYQQKPGQAPRLLIYKVSNRFSGVPDRFSGSGSGTDFTLKISRVEAEDVGVYYCGQGTQVPYTFGQGTKLEIKR
notes: one-arm
B2 showed a dissociation constant Kd of 4.8 nM.

B3: GCH054-G1dh/none-Hi-Kn010G3/L0203-k0 (antibody, V domains shown)
VH: QVQLVQSGAEVKKPGASVTVSCKASGYTFTDYEMHWIRQPPGEGLEWIGAIDGETPDTAYSEKFKGRVTLTADKSTSTAYMELSSLTSEDTAVYYCTRFYSYTYWGQGTLVTVSS
VL: DIVMTQSPLSLPVTPGEPASISCRSSQSPVHSNRNTYIHWYQQKPGQAPRLLIYKVSNRFSGVPDRFSGSGSGTDFTLKISRVEAEDVGVYYCGQGTQVPYTFGQGTKLEIKR
notes: one-arm
With B3, the dissociation constant Kd stood at 2.48 nM.

B4: GCH045-G1dh/none-Hi-Kn010G3/L0000-k0 (antibody, V domains shown)
VH: QVQLVQSGAEVKKPGASVKVSCKASGYTFTDYEMHWIRQPPGQGLEWIGAIDGKTPDTAYSQKFKGRVTLTADKSTSTAYMELSSLTSEDTAEYYCTRFYSYTYWGQGTLVTVSS
VL: DIVMTQSPLSLPVTPGEPASISCRSSQSLVHSNRNTYLHWYQQKPGQAPRLLIYKVSNRFSGVPDRFSGSGSGTDFTLKISRVEAEDVGVYYCGQGTQVPYTFGQGTKLEIKR
notes: one-arm
B4: the dissociation constant Kd was 4.63 nM.

B5: GCH054-G1dh/none-Hi-Kn010G3/L0201-k0 (antibody, V domains shown)
VH: QVQLVQSGAEVKKPGASVTVSCKASGYTFTDYEMHWIRQPPGEGLEWIGAIDGETPDTAYSEKFKGRVTLTADKSTSTAYMELSSLTSEDTAVYYCTRFYSYTYWGQGTLVTVSS
VL: DIVMTQSPLSLPVTPGEPASISCRSSQPPVHSNRNTYLHWYQQKPGQAPRLLIYKVSNRFSGVPDRFSGSGSGTDFTLKISRVEAEDVGVYYCGQGTQVPYTFGQGTKLEIKR
notes: one-arm
In turn, B5 returned a Kd of 1.08 nM.

B6: GCH035-G1dh/none-Hi-Kn010G3/L0000-k0 (antibody, V domains shown)
VH: QVQLVQSGAEVKKPGASVKVSCKASGYTFTDYEMHWIRQPPGQGLEWIGAIDGKTPDTAYSQKFKGRVELTADKSTSTAYMELSSLTSEDTAVYYCTRFYSYTYWGQGTLVTVSS
VL: DIVMTQSPLSLPVTPGEPASISCRSSQSLVHSNRNTYLHWYQQKPGQAPRLLIYKVSNRFSGVPDRFSGSGSGTDFTLKISRVEAEDVGVYYCGQGTQVPYTFGQGTKLEIKR
notes: one-arm
Regarding B6, the affinity, expressed as Kd, was 4.94 nM.

B7: GCH042-G1dh/none-Hi-Kn010G3/L0000-k0 (antibody, V domains shown)
VH: QVQLVQSGAEVKKPGASVKVSCKASGYTFTDYEMHWIRQPPGQGLEWIGAIDGKTPDTAYSQKFKGRVTLTADKSTSTAYMELSSLTEEDTAVYYCTRFYSYTYWGQGTLVTVSS
VL: DIVMTQSPLSLPVTPGEPASISCRSSQSLVHSNRNTYLHWYQQKPGQAPRLLIYKVSNRFSGVPDRFSGSGSGTDFTLKISRVEAEDVGVYYCGQGTQVPYTFGQGTKLEIKR
notes: one-arm
B7 displayed a dissociation constant Kd of 4.89 nM.

B8: GCH054-G1dh/none-Hi-Kn010G3/L0212-k0 (antibody, V domains shown)
VH: QVQLVQSGAEVKKPGASVTVSCKASGYTFTDYEMHWIRQPPGEGLEWIGAIDGETPDTAYSEKFKGRVTLTADKSTSTAYMELSSLTSEDTAVYYCTRFYSYTYWGQGTLVTVSS
VL: DIVMTQSPLSLPVTPGEPASISCRPSQSPVHSNRNTYLHWYQQKPGQAPRLLIYKVSNRFSGVPDRFSGSGSGTDFTLKISRVEAEDVGVYYCYQGTQVPYTFGQGTKLEIKR
notes: one-arm
In turn, B8 returned a Kd of 0.517 nM.

B9: GCH054-G1dh/none-Hi-Kn010G3/L0000-k0 (antibody, V domains shown)
VH: QVQLVQSGAEVKKPGASVTVSCKASGYTFTDYEMHWIRQPPGEGLEWIGAIDGETPDTAYSEKFKGRVTLTADKSTSTAYMELSSLTSEDTAVYYCTRFYSYTYWGQGTLVTVSS
VL: DIVMTQSPLSLPVTPGEPASISCRSSQSLVHSNRNTYLHWYQQKPGQAPRLLIYKVSNRFSGVPDRFSGSGSGTDFTLKISRVEAEDVGVYYCGQGTQVPYTFGQGTKLEIKR
notes: one-arm
In turn, B9 displayed a dissociation constant Kd of 5.3 nM.

B10: GCH054-G1dh/none-Hi-Kn010G3/L0222-k0 (antibody, V domains shown)
VH: QVQLVQSGAEVKKPGASVTVSCKASGYTFTDYEMHWIRQPPGEGLEWIGAIDGETPDTAYSEKFKGRVTLTADKSTSTAYMELSSLTSEDTAVYYCTRFYSYTYWGQGTLVTVSS
VL: DIVMTQSPLSLPVTPGEPASISCRSSQSPVHSNRNTYIQWYQQKPGQAPRLLIYKVSNRFSGVPDRFSGSGSGTDFTLKISRVEAEDVGVYYCYQGTQVPYTFGQGTKLEIKR
notes: one-arm
B10 gave a Kd of 0.0315 nM.

B11: GCH055-G1dh/none-Hi-Kn010G3/L0000-k0 (antibody, V domains shown)
VH: QVQLVQSGAEVKKPGASVTVSCKASGYTFTDYEMHWIRQPPGEGLEWIGAIDGETPDTAYSDKFKGRVTLTADKSTSTAYMELSSLTSEDTAVYYCTRFYSYTYWGQGTLVTVSS
VL: DIVMTQSPLSLPVTPGEPASISCRSSQSLVHSNRNTYLHWYQQKPGQAPRLLIYKVSNRFSGVPDRFSGSGSGTDFTLKISRVEAEDVGVYYCGQGTQVPYTFGQGTKLEIKR
notes: one-arm
For B11, the dissociation constant (Kd) is 5.6 nM.

B12: GCH039-G1dh/none-Hi-Kn010G3/L0000-k0 (antibody, V domains shown)
VH: QVQLVQSGAEVKKPGASVKVSCKASGYTFTDYEMHWIRQPPGQGLEWIGAIDGKTPDTAYSQKFKGRVTLTADKSTSTAYMELESLTSEDTAVYYCTRFYSYTYWGQGTLVTVSS
VL: DIVMTQSPLSLPVTPGEPASISCRSSQSLVHSNRNTYLHWYQQKPGQAPRLLIYKVSNRFSGVPDRFSGSGSGTDFTLKISRVEAEDVGVYYCGQGTQVPYTFGQGTKLEIKR
notes: one-arm
In turn, B12 had a Kd of 4.95 nM.

B13: GCH043-G1dh/none-Hi-Kn010G3/L0000-k0 (antibody, V domains shown)
VH: QVQLVQSGAEVKKPGASVKVSCKASGYTFTDYEMHWIRQPPGQGLEWIGAIDGKTPDTAYSQKFKGRVTLTADKSTSTAYMELSSLTSEDEAVYYCTRFYSYTYWGQGTLVTVSS
VL: DIVMTQSPLSLPVTPGEPASISCRSSQSLVHSNRNTYLHWYQQKPGQAPRLLIYKVSNRFSGVPDRFSGSGSGTDFTLKISRVEAEDVGVYYCGQGTQVPYTFGQGTKLEIKR
notes: one-arm
Take B13: binding was put at a Kd of 3.74 nM.

B14: GCH053-G1dh/none-Hi-Kn010G3/L0000-k0 (antibody, V domains shown)
VH: QVQLVQSGAEVKKPGASVTVSCKASGYTFTDYEMHWIRQPPGEGLEWIGAIDGETPDTAYEQKFKGRVTLTADKSTSTAYMELSSLTSEDTAVYYCTRFYSYTYWGQGTLVTVSS
VL: DIVMTQSPLSLPVTPGEPASISCRSSQSLVHSNRNTYLHWYQQKPGQAPRLLIYKVSNRFSGVPDRFSGSGSGTDFTLKISRVEAEDVGVYYCGQGTQVPYTFGQGTKLEIKR
notes: one-arm
For the molecule B14, the affinity, expressed as Kd, was 4.05 nM.

B15: GCH034-G1dh/none-Hi-Kn010G3/L0000-k0 (antibody, V domains shown)
VH: QVQLVQSGAEVKKPGASVKVSCKASGYTFTDYEMHWIRQPPGQGLEWIGAIDGKTPDTAYSQKFEGRVTLTADKSTSTAYMELSSLTSEDTAVYYCTRFYSYTYWGQGTLVTVSS
VL: DIVMTQSPLSLPVTPGEPASISCRSSQSLVHSNRNTYLHWYQQKPGQAPRLLIYKVSNRFSGVPDRFSGSGSGTDFTLKISRVEAEDVGVYYCGQGTQVPYTFGQGTKLEIKR
notes: one-arm
Take B15: the dissociation constant Kd is 5.09 nM.

The values are drawn from patent US20250066503A1, “CELL INJURY INDUCING THERAPEUTIC DRUG FOR USE IN CANCER THERAPY” (CHUGAI SEIYAKU KABUSHIKI KAISHA, priority 2016, published 2025).
